Laboratory results from patent US20250326865A1, “C-MET PROTEIN-BINDING PEPTIDE COMPLEX” (PeptiDream Inc., priority 2021, published 2025).
Starred links: 1 amine or outer side, 2 acyl side, 3 side chain; linkers in the order of their positions; H or OH if unused. Positions of bridges follow the written chain, without caps; N, C: chain ends. Non-standard residues stand in square brackets, D forms with d. Residues, ends and D or L forms follow the SMILES beside them. Primed or numbered codes have the meaning given here. Chains are numbered I, II in the order given. No end group written: not given here. CO(CH2)2(OCH2CH2)17CO = O=C(CCOCCOCCOCCOCCOCCOCCOCCOCCOCCOCCOCCOCCOCCOCCOCCOCCOCCC(=O)[*:2])[*:1]; CO(CH2CH2O)9CH2CH2CO = O=C(CCOCCOCCOCCOCCOCCOCCOCCOCCOCCC(=O)[*:2])[*:1]; X1 = O=C(OCCOCCOCCOCCOCCOCCOCCOCCOCCOCCOCCOCCOC(=O)[*:2])[*:1]; PEG12 = NCCOCCOCCOCCOCCOCCOCCOCCOCCOCCOCCOCCOCCC(=O)O; NMeF = CN[C@@H](Cc1ccccc1)C(=O)O; Ahp(2) = CCCCC[C@H](N)C(=O)O; NMeC = CN[C@@H](CS)C(=O)O; Ahp′ = not defined here; Abu = CC[C@H](N)C(=O)O

Tests used:
[1] = target: human c-Met protein (human, UniProt P08581 25-1390); test: cell-based or functional assay
[2] = target: T1, c-Met (Homo sapiens, UniProt P08581); test: Phospho-c-Met AlphaLISA assay (c-Met agonist activity) in A431 cells; assay type: cell-based; details: 15 minutes of stimulation; for C-Met Agonist Activity (2 or 1): c-Met phosphorylation (Tyr1234/1235) in A431 cells, maximum signal induced by HGF = 100%; for EC50: concentration of peptide showing 50% activity of the signal induced by HGF, A431 cells, read-out: C-Met Agonist Activity (C50; nM)
T1 construct: endogenous in cells; host or cells: A431 (human)
Experimental: To evaluate the activation potency (c-Met agonist activity) of c-Met of the peptide complex of the present invention, the phosphorylation of c-Met was verified. Human A431 cells were cultured in DMEM high glucose, GlutaMAX (registered trademark) Supplement, pyruvate (Thermo Fisher Scientific), containing 10% FBS (Gibco). After cells were detached using Accutase (Innovative cell technologies), they were seeded into a 96-well plate at 10000 cells per well and cultured overnight. The next day, for starvation, the culture medium was changed to DMEM high glucose, GlutaMAX (registered trademark) Supplement, pyruvate (Thermo Fisher Scientific), containing 0.1% BSA (Sigma-Aldrich), and the cells were cultured overnight. Then, the peptide complex synthesized in Example 3 or Recombinant Human HGF Protein (R&D systems) as a control was added, and after 15 minutes of stimulation, cells were lysed in a Lysis Buffer provided in the AlphaLISA (registered trademark) SureFire (registered trademark) Ultra™ Phospho-c-Met (Tyr1234/1235) kit (PerkinElmer). The assay was performed according to the kit protocol, and a SpectraMax (registered trademark) Paradigm (registered trademark) multimode microplate reader (Molecular Devices, LLC.) was used for signal detection. […] In the same manner, the C50 value was calculated by GraphPad Prism as the concentration of peptide showing 50% activity of the signal induced by HGF. […] Further, for a complex (GFs_c-Met-00014336-PEG13 dimer; complex no. 49 in Table 4) of a peptide (SEQ ID NO: 34) and a linker (SEQ ID NO: 37), a graph of c-Met agonist activity is shown in FIG. 1.

T1 sequence (P08581 25-1390): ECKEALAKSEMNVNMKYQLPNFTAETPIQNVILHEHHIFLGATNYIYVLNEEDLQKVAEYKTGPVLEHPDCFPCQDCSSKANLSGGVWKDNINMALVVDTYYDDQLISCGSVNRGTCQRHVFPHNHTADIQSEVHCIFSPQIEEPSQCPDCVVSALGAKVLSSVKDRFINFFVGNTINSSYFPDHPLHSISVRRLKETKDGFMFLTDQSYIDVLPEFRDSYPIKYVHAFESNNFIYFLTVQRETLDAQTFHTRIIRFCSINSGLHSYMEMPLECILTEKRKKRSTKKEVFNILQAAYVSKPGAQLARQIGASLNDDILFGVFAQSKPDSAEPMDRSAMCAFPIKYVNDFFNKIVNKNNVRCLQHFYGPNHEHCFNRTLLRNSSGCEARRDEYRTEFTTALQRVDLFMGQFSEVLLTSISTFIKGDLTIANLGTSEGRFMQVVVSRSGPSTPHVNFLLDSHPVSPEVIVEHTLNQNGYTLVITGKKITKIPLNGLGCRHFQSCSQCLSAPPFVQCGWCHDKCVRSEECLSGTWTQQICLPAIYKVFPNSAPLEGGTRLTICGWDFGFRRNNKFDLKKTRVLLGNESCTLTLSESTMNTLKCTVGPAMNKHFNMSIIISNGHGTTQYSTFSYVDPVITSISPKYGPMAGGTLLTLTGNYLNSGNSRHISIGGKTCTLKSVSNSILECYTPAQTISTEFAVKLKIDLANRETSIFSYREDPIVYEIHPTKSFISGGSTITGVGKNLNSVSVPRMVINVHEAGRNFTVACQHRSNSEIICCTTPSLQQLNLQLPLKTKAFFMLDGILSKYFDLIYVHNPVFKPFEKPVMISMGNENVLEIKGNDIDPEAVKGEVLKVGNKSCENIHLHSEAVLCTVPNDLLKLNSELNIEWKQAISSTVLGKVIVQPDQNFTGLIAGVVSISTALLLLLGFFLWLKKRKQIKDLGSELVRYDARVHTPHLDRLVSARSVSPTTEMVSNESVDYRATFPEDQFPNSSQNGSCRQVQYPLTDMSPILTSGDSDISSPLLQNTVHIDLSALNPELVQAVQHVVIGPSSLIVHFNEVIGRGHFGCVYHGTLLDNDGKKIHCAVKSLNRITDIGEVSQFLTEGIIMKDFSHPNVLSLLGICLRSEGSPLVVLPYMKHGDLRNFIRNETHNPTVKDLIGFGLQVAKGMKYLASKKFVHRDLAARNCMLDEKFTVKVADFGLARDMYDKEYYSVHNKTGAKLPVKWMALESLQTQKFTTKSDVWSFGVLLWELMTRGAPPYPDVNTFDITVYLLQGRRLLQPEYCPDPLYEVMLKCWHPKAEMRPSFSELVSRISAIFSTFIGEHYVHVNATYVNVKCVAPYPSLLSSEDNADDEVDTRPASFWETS
Chain of human c-Met protein (P08581 25-1390): as above

Compound	C-Met Agonist Activity (2 or 1) [2]	EC50 [2]	other results
Recombinant Human HGF Protein (R&D systems) (from UniProt P14210 32-728) (ligand)			EC50, HUVEC cell proliferation (CellTiter-Glo) [1]: 0.37 nM; EC50, phospho-c-Met AlphaLISA, A431 cells [1]: 0.66 nM
6 ([NMeF]VDVS[NMeF]DDD[Ahp′]PRWS[NMeC]; not fully specified; reading uncertain) [Peptide 6]	2 (those showing more than 50% activation were described as 2)		
CCCCC[C@@H]1NC(=O)[C@H](CC(=O)O)NC(=O)[C@H](CC(=O)O)NC(=O)[C@H](CC(=O)O)NC(=O)[C@H](Cc2ccccc2)N(C)C(=O)[C@H](CO)NC(=O)[C@H](C(C)C)NC(=O)[C@H](Cc2ccc(O)cc2)NC(=O)[C@H](C(C)C)NC(=O)[C@H](Cc2ccccc2)N(C)C(=O)CSC[C@@H](C(=O)NCCOCCOCCOCCOCCOCCOCCOCCOCCOCCOCCOCCOCCC(=O)NCCCC[C@H](NC(=O)CCOCCOCCOCCOCCOCCOCCOCCOCCOCCOCCOCCOCCNC(=O)[C@@H]2CSCC(=O)N(C)[C@@H](Cc3ccccc3)C(=O)N[C@@H](C(C)C)C(=O)N[C@@H](Cc3ccc(O)cc3)C(=O)N[C@@H](C(C)C)C(=O)N[C@@H](CO)C(=O)N(C)[C@@H](Cc3ccccc3)C(=O)N[C@@H](CC(=O)O)C(=O)N[C@@H](CC(=O)O)C(=O)N[C@@H](CC(=O)O)C(=O)N[C@@H](CCCCC)C(=O)N3CCC[C@H]3C(=O)N[C@@H](CCCNC(=N)N)C(=O)N[C@@H](Cc3c[nH]c4ccccc34)C(=O)N[C@@H](C)C(=O)N2C)C(N)=O)N(C)C(=O)[C@H](C)NC(=O)[C@H](Cc2c[nH]c3ccccc23)NC(=O)[C@H](CCCNC(=N)N)NC(=O)[C@@H]2CCCN2C1=O [Peptide 22] (I: {CH2CO}-[NMeF]VYVS[NMeF]DDD[Ahp(2)]PRWA[NMeC][PEG12]K-NH2 / II: {CH2CO}-[NMeF]VYVS[NMeF]DDD[Ahp(2)]PRWA[NMeC][PEG12]; amide I:17-II:C; thioether I:N-I:15, II:N-II:15)		2.37 nM	
CCCCC[C@@H]1NC(=O)[C@H](CC(=O)O)NC(=O)[C@@H]2CCCN2C(=O)[C@H](CC(=O)O)NC(=O)[C@H](Cc2ccccc2)N(C)C(=O)[C@H](CO)NC(=O)[C@H](C(C)C)NC(=O)[C@H](C)NC(=O)[C@H](CCC(=O)O)NC(=O)[C@H](Cc2ccccc2)N(C)C(=O)CSC[C@@H](C(=O)NCC(=O)N[C@@H](CCCCNC(=O)CCOCCOCCOCCOCCOCCOCCOCCOCCOCCC(=O)NCCCC[C@H](NC(=O)CNC(=O)[C@@H]2CSCC(=O)N(C)[C@@H](Cc3ccccc3)C(=O)N[C@@H](CCC(=O)O)C(=O)N[C@@H](C)C(=O)N[C@@H](C(C)C)C(=O)N[C@@H](CO)C(=O)N(C)[C@@H](Cc3ccccc3)C(=O)N[C@@H](CC(=O)O)C(=O)N3CCC[C@H]3C(=O)N[C@@H](CC(=O)O)C(=O)N[C@@H](CCCCC)C(=O)N3CCC[C@H]3C(=O)N[C@@H](CCCNC(=N)N)C(=O)N[C@@H](Cc3c[nH]c4ccccc34)C(=O)N[C@@H](CO)C(=O)N2C)C(N)=O)C(N)=O)N(C)C(=O)[C@H](CO)NC(=O)[C@H](Cc2c[nH]c3ccccc23)NC(=O)[C@H](CCCNC(=N)N)NC(=O)[C@@H]2CCCN2C1=O [Peptide 30] (I: {CH2CO}-[NMeF]EAVS[NMeF]DPD[Ahp(2)]PRWS[NMeC]GK-NH2 / II: {CH2CO}-[NMeF]EAVS[NMeF]DPD[Ahp(2)]PRWS[NMeC]GK-NH2; linker I:17-II:17 via CO(CH2CH2O)9CH2CH2CO (inferred); thioether I:N-I:15, II:N-II:15 (inferred))		0.81 nM	
4 (AVYVS[NMeF]DDD[Ahp′]PRWS[NMeC]; not fully specified (N-terminus, bridges); reading uncertain; also: conjugated moiety via linker) [Peptide 4]	1 (those showing less than 50% activation as 1)		
CCCCC[C@@H]1NC(=O)[C@H](CC(=O)O)NC(=O)[C@@H]2CCCN2C(=O)[C@H](CC(=O)O)NC(=O)[C@H](Cc2ccccc2)N(C)C(=O)[C@H](CO)NC(=O)[C@H](C(C)C)NC(=O)[C@H](C)NC(=O)[C@H](CCC(=O)O)NC(=O)[C@H](Cc2ccccc2)N(C)C(=O)CSC[C@@H](C(=O)NCC(=O)N[C@@H](CCCCNC(=O)CCOCCOCCOCCOCCOCCOCCOCCOCCOCCOCCOCCOCCOCCOCCOCCOCCOCCC(=O)NCCCC[C@H](NC(=O)CNC(=O)[C@@H]2CSCC(=O)N(C)[C@@H](Cc3ccccc3)C(=O)N[C@@H](CCC(=O)O)C(=O)N[C@@H](C)C(=O)N[C@@H](C(C)C)C(=O)N[C@@H](CO)C(=O)N(C)[C@@H](Cc3ccccc3)C(=O)N[C@@H](CC(=O)O)C(=O)N3CCC[C@H]3C(=O)N[C@@H](CC(=O)O)C(=O)N[C@@H](CCCCC)C(=O)N3CCC[C@H]3C(=O)N[C@@H](CCCNC(=N)N)C(=O)N[C@@H](Cc3c[nH]c4ccccc34)C(=O)N[C@@H](C)C(=O)N2C)C(N)=O)C(N)=O)N(C)C(=O)[C@H](C)NC(=O)[C@H](Cc2c[nH]c3ccccc23)NC(=O)[C@H](CCCNC(=N)N)NC(=O)[C@@H]2CCCN2C1=O [Peptide 27] (I: {CH2CO}-[NMeF]EAVS[NMeF]DPD[Ahp(2)]PRWA[NMeC]GK-NH2 / II: {CH2CO}-[NMeF]EAVS[NMeF]DPD[Ahp(2)]PRWA[NMeC]GK-NH2; linker I:17-II:17 via CO(CH2)2(OCH2CH2)17CO (inferred); thioether I:N-I:15, II:N-II:15 (inferred); C-terminus assumed)		2.37 nM	
CCCCC[C@@H]1NC(=O)[C@H](CC(=O)O)NC(=O)[C@H](CCC(=O)O)NC(=O)[C@H](CC(=O)O)NC(=O)[C@H](Cc2ccccc2)N(C)C(=O)[C@H](CO)NC(=O)[C@H](C(C)C)NC(=O)[C@H](C)NC(=O)[C@H]([C@@H](C)O)NC(=O)[C@H](Cc2ccccc2)N(C)C(=O)CSC[C@@H](C(=O)NCC(=O)N[C@@H](CCCCNC(=O)OCCOCCOCCOCCOCCOCCOCCOCCOCCOCCOCCOCCOC(=O)NCCCC[C@H](NC(=O)CNC(=O)[C@@H]2CSCC(=O)N(C)[C@@H](Cc3ccccc3)C(=O)N[C@@H]([C@@H](C)O)C(=O)N[C@@H](C)C(=O)N[C@@H](C(C)C)C(=O)N[C@@H](CO)C(=O)N(C)[C@@H](Cc3ccccc3)C(=O)N[C@@H](CC(=O)O)C(=O)N[C@@H](CCC(=O)O)C(=O)N[C@@H](CC(=O)O)C(=O)N[C@@H](CCCCC)C(=O)N3CCC[C@H]3C(=O)N[C@@H](CCCNC(=N)N)C(=O)N[C@@H](Cc3c[nH]c4ccccc34)C(=O)N[C@@H](CO)C(=O)N2C)C(N)=O)C(N)=O)N(C)C(=O)[C@H](CO)NC(=O)[C@H](Cc2c[nH]c3ccccc23)NC(=O)[C@H](CCCNC(=N)N)NC(=O)[C@@H]2CCCN2C1=O [Peptide 49] (I: {CH2CO}-[NMeF]TAVS[NMeF]DED[Ahp(2)]PRWS[NMeC]GK-NH2 / II: {CH2CO}-[NMeF]TAVS[NMeF]DED[Ahp(2)]PRWS[NMeC]GK-NH2; linker I:17-II:17 via X1 (inferred); thioether I:N-I:15, II:N-II:15 (inferred); C-terminus assumed)		0.67 nM	
13 ({CH2CO}-[NMeF]VYVS[NMeF]DDD[Ahp′]PRWH[NMeC]; thioether N-15 (inferred); not fully specified; reading uncertain; also: conjugated moiety via linker) [Peptide 13]	2 (those showing more than 50% activation were described as 2)		
11 ({CH2CO}-[NMeF]VYVS[NMeF]DDD[Ahp′]PRW[Abu][NMeC]; thioether N-15 (inferred); not fully specified; reading uncertain; also: conjugated moiety via linker) [Peptide 11]	2 (those showing more than 50% activation were described as 2)		
